Reference: US10876098B2, “Polynucleotide, host cell and a method to recombinantly produce the protein encoded by said polynucleotide having peroxygenative activity” (CONSEJO SUPERIOR DE INVESTIGACIONES CIENTIFICAS (CSIC), priority 2015, dated 2020)

Key:
Format in all cases: biochemical
[1] = Dual colorimetric HTS, naphthalene-Fast Red (peroxygenase activity on microplate); details: parental PaDa-I; S. cerevisiae microcultures
Description: The mother plates were centrifuged (Eppendorf 5810R centrifuge, Germany) for 10 minutes at 3,500 RPM and 4° C. 20 μL of supernatant were transferred from these mother plates to two replica daughter plates with the help of a Freedom EVO liquid handling robot (Tecan, Switzerland).
The plates were briefly agitated and initial absorbance was measured at 469 nm and 510 nm, respectively, using a plate reader for such purpose ([…]ax Plus 384, Molecular Devices, USA). […] The plates were kept at room temperature until they turned orange (DMP) or red (naphthol-Fast Red), at which time the absorbance was newly measured. The values were normalised against the parental of each plate. In order to rule out false positives, two re-screenings were carried out, in addition to a third re-screening wherein kinetic stability was determined (T50) (P. Molina-Espeja, et al. Appl. Environ. Microbiol. 2014. 80, 3496-3507).

[2] = Turnover with 5′-hydroxypropranolol as substrate, HPLC; details: 0.03 μM enzyme, 0.4 mM 5′-hydroxypropranolol, 2 mM H2O2, absence of ascorbic acid
Description: FIG. 14 Turnover rates of AaeUPO, JaWa and SoLo. […] The disappearance of the product 5′-hydroxypropranolol can be observed due to the formation of its corresponding quinone by means of the peroxidase activity of the enzyme.
(§1) The reactions were analysed by means of chromatography in reverse phase (HPLC). The equipment was composed of a tertiary pump (Varian-Agilent Technologies, USA) coupled to an autosampler (Merck Millipore, MA, USA); for the separation, a Zorbax Eclipse plus C18 column (15 cm×4.6 cm) at 40° C. was used and the detection was performed using a photodiode detector (PDA) (Varian, Agilent Technologies, USA). The mobile phase selected was a gradient from 10% methanol and 90% ddH2O (in both cases with 0.1% of acetic acid) up to 90% methanol and 10% ddH2O at a flow rate of 0.8 mL/min. The reaction was quantified at 280 nm (based on HPLC standards). […] The standard deviations were less than 5% in all cases.

[3] = Conversion of 1-naphthol into 1,4-naphthoquinone, HPLC; details: versus PaDa-I
Description: Each reaction was performed in triplicate and were stopped with HCl (pH<1) at different times (between 60 and 600 s). Inset: polymeric colorimetric products derived from 1.4-naphthoquinone, 1: PaDa-I and 2: JaWa.
This effect can also be observed at first glance, since the polymeric products produced in the reaction with the PaDa-I variants (SEQ ID NO: 18) (due to non-enzymatic quinone regrouping processes) are coloured (FIG. 4). There are hypotheses in literature on the possibility that UPO is similar to CPO in the existence of different sites with peroxidase activity in its structure. To suppress these alternative peroxidation pathways, the structure of the AaeUPO1 crystal was closely examined and a variant was built by mean of directed mutagenesis in Trp24 (FIG. 5A), a highly oxidable residue, found on the protein surface, using the PaDa-I (SEQ ID NO: 18) and JaWa (SEQ ID NO: 24) variants as templates, as described in the section on materials and methods.

[4] = Total turnover number (TTN) for synthesis of 5′-hydroxypropranolol from propranolol; details: 0.03 μM enzyme, propranolol, 2 mM H2O2 added every 10 minutes
Description: FIG. 15 Calculation of the total turnover number (TTN) of AaeUPO and SoLo.
as §1

B1: JaWa: PaDa-I variant with added mutations G241D and R257K, SEQ ID NO: 24 (protein)
chain: MKYFPLFPTLVYAVGVVAFPDYASLAGLSQQELDAIIPTLEAREPGLPPGPLENSSAKLVNDEAHPWKPLRPGDIRGPCPGLNTLASHGYLPRNGVATPAQIINAVQEGFNFDNQAAIFATYAAHLVDGNLITDLLSIGRKTRLTGPDPPPPASVGGLNEHGTFEGDASMTRGDAFFGNNHDFNETLFEQLVDYSNRFGGGKYNLTVAGELRFKRIQDSIATNPNFSFVDFRFFTAYGETTFPANLFVDGRRDDGQLDMDAARSFFQFSRMPDDFFRAPSPRSDTGVEVVVQAHPMQPGKNVGKINSYTVDPTSSDFSTPCLMYEKFVNITVKSLYPNPTVQLRKALNTNLDFLFQGVAAGCTQVFPYGRD
- peroxygenase activity on microplate relative to parental [1]: doubled that of its parental
- 5′-hydroxypropranolol maintained without oxidising [2]: oxidise practically the entire product
- reduction in the ratio 1,4-naphthoquinone:1-naphthol [3]: ~1.5 fold
- TTNs, With ascorbic acid ([4]; 4 mM ascorbic acid): 48,000
- TTNs, Without ascorbic acid ([4]; absence of ascorbic acid): 15,000
